Columns and labels:
[1] = tested on: PSA capture agent biligand biotin-PEG5-cyclic(CVFAHNYDYLVC)-Tz5-Gllffk
[2] = tested on: PSA anchor ligand biotin-PEG5-cyclic(CVFAHNYDYLVC)

Question: With “human prostate specific antigen (free PSA, Scripps Laboratories #P0725)” as the substance, how does the enzyme activity of PSA against the chromogenic substrate Suc-Arg-Pro-Tyr-pNA (absorbance at 405 nm) [1] read?
Answer: Its enzyme activity of PSA against the chromogenic substrate Suc-Arg-Pro-Tyr-pNA (absorbance at 405 nm) is 3 fold.

Question: What about the enzyme activity of PSA against the chromogenic substrate Suc-Arg-Pro-Tyr-pNA (absorbance at 405 nm) [2] of the same substance?
Answer: The enzyme activity of PSA against the chromogenic substrate Suc-Arg-Pro-Tyr-pNA (absorbance at 405 nm) was 3 fold.
